Source: US20050132443A1

Molecular target: tobacco ethylene-responsive transcription factor ERF4 (tobacco) (UniProt Q40478)
Assay: cell-based or functional assay

Chain of tobacco ethylene-responsive transcription factor ERF4 (tobacco) (Q40478 whole entry): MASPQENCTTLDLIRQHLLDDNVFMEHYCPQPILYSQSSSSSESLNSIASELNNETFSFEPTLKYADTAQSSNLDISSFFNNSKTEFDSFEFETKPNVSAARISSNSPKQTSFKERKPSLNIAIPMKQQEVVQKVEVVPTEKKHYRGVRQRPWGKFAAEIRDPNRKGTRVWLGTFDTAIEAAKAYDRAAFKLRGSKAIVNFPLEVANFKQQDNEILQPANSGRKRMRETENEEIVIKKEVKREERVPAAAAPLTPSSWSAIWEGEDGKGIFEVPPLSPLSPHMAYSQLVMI

Multiprotein Bridging Factor 1 of Oryza sativa (oMBF1)
GUS activity (pERE-GUS reporter, transient assay in tobacco leaves): 5.5 fold
